Test results published in the Human Domainome abundance scans (Beltran et al. 2025).
± gives the uncertainty stated by the source.

B1: Cell division cycle and apoptosis regulator protein 1, residues 625 to 674; numbered along this chain, Q8IX12 (parent)
chain: ISTPTHWSKLDPKTMKVNDLRKELESRALSSKGLKSQLIARLTKQLKVEE
B2: Tripartite motif-containing protein 6, residues 93 to 134; numbered along this chain, Q9C030 (parent)
chain: KAVLCADHGEKLQLFCQEDGKVICWLCERSQEHRGHHTFLVE

Variants of: B1
Test: abundance fitness (aPCA) (normalised: wild type 0, dead -1); higher = more abundant; growth selection in yeast, the domain comes from the species named
Conditions: Homo sapiens

Abundance fitness of substitutions, site by site:
Q37: P -0.231 ± 0.054
R21: D -1 ± 0.17; T -0.155 ± 0.037; C -0.039 ± 0.048
L24: E -0.665 ± 0.053
S31: A 0.005 ± 0.034
K16: S -0.011 ± 0.038
L34: H -0.026 ± 0.043
M15: P -0.83 ± 0.12; E -0.949 ± 0.11
E25: M -0.076 ± 0.044
K13: I -0.052 ± 0.06
T5: C -0.483 ± 0.068
E49: K -1.19 ± 0.22
S30: I -0.185 ± 0.071
I1: V -0.11 ± 0.046
E50: N -0.332 ± 0.095
V17: I 0.013 ± 0.046
K35: C -0.355 ± 0.058
R41: E -0.212 ± 0.045
K32: S -0.142 ± 0.042; G -0.131 ± 0.045
S36: N -0.146 ± 0.064
Q45: P -0.872 ± 0.06

Variants of: B2
Test: as above
Conditions: Homo sapiens

Abundance fitness: each site, then its substitutions
D19: A -0.807 ± 0.35; G -0.757 ± 0.19; H -0.289 ± 0.12; R -0.584 ± 0.092; C 0.627 ± 0.2; S -0.391 ± 0.3; I -0.888 ± 0.31
V22: R 0.065 ± 0.1; N 0.093 ± 0.21; G -0.019 ± 0.1; A -0.047 ± 0.13; E -0.127 ± 0.22; Q -0.04 ± 0.24
E18: H -0.265 ± 0.29; K -0.349 ± 0.12; W -0.537 ± 0.13; Q -0.146 ± 0.11; R -0.302 ± 0.068; V -0.261 ± 0.084; I -0.364 ± 0.29; G -0.434 ± 0.18; T -0.038 ± 0.12; A -0.428 ± 0.083; L -1 ± 0.26
G9: W -0.301 ± 0.049; H -0.287 ± 0.21; N 0.332 ± 0.38; C -0.237 ± 0.27; E -0.179 ± 0.044; R -0.066 ± 0.039; D -0.087 ± 0.14; Q -0.032 ± 0.048; A -0.061 ± 0.037; S -0.042 ± 0.061; L -0.238 ± 0.038; M -0.162 ± 0.052; V -0.575 ± 0.054; T -0.407 ± 0.083
Q13: R -0.135 ± 0.047; K 0.128 ± 0.11; G -0.071 ± 0.045; S 0.058 ± 0.045; E 0.142 ± 0.062; A 0.004 ± 0.052; T 0.124 ± 0.054; I -0.086 ± 0.22; V -0.148 ± 0.053; P -0.256 ± 0.048; Y -0.217 ± 0.17; M -0.274 ± 0.17; N 0.21 ± 0.2; D -0.109 ± 0.33
K21: E 0.047 ± 0.091; D -0.29 ± 0.23; Y -0.035 ± 0.09; F -0.403 ± 0.26; A -0.099 ± 0.078; R 0.086 ± 0.055; V 0.086 ± 0.065; T -0.183 ± 0.17; M -0.284 ± 0.087; Q -0.358 ± 0.19; N -0.034 ± 0.16; H -0.136 ± 0.12; W -0.403 ± 0.079; C -0.402 ± 0.38; L -0.283 ± 0.063
F15: A -0.248 ± 0.046; R -0.112 ± 0.044; N -0.418 ± 0.1; M -0.029 ± 0.055; D -0.329 ± 0.33; T -0.292 ± 0.056; P -0.209 ± 0.062; E -0.126 ± 0.046; S -0.212 ± 0.059; C 0.001 ± 0.078; K 0.044 ± 0.067; Q 0.082 ± 0.061; G -0.087 ± 0.041; L -0.222 ± 0.051
C5: V -0.839 ± 0.092; H -0.768 ± 0.32; G -0.664 ± 0.054; D -0.807 ± 0.21; N -0.922 ± 0.17; P -0.777 ± 0.11; F -0.871 ± 0.21; R -0.978 ± 0.092; Q -0.812 ± 0.18; T -0.954 ± 0.12; M -0.769 ± 0.12; W -1.06 ± 0.12; L -0.999 ± 0.089; E -0.615 ± 0.064; Y -0.602 ± 0.11; K -0.789 ± 0.12; A -1.06 ± 0.14
L4: F 0.141 ± 0.09; D -0.223 ± 0.49; R -0.082 ± 0.043; Y 0.047 ± 0.23; C -0.189 ± 0.09; V 0.011 ± 0.05; S -0.217 ± 0.059; N 0.224 ± 0.19; W -0.199 ± 0.047; Q -0.272 ± 0.065; K -0.148 ± 0.085; M 0.195 ± 0.064; G -0.175 ± 0.041; E -0.126 ± 0.066; T -0.066 ± 0.054; A -0.165 ± 0.051
E10: D -0.075 ± 0.16; W -0.406 ± 0.048; A -0.185 ± 0.15; Q -0.1 ± 0.059; C -0.163 ± 0.1; G -0.165 ± 0.041; S -0.319 ± 0.069; Y -0.031 ± 0.068; R -0.019 ± 0.058; H -0.442 ± 0.31; F -0.01 ± 0.077
C16: K -0.275 ± 0.063; N -0.298 ± 0.061; R -0.354 ± 0.042; V -0.451 ± 0.051; H -0.337 ± 0.078; D -0.218 ± 0.055; E -0.174 ± 0.05; A -0.284 ± 0.042; T -0.747 ± 0.087; W -0.802 ± 0.083; M -0.584 ± 0.075; S -0.286 ± 0.048; G -0.304 ± 0.038
L12: C 0.092 ± 0.077; V -0.06 ± 0.05; T -0.084 ± 0.061; S 0.202 ± 0.058; I -0.231 ± 0.16; G 0.117 ± 0.039; E -0.109 ± 0.053; R 0.05 ± 0.041; Q -0.008 ± 0.058; K -0.004 ± 0.086; N 0.381 ± 0.14; P 0.151 ± 0.059; M 0.195 ± 0.075; F -0.11 ± 0.13; A 0.204 ± 0.048
H8: Q -0.275 ± 0.08; F -1.09 ± 0.35; P -0.819 ± 0.094; S -0.901 ± 0.12; T -0.69 ± 0.087; W -1 ± 0.093; R -0.77 ± 0.062; I -0.74 ± 0.18; A -0.706 ± 0.058; N -0.807 ± 0.26; L -1.08 ± 0.15; C -0.584 ± 0.13; E -0.518 ± 0.072; V -0.852 ± 0.082; K -0.419 ± 0.091; G -0.691 ± 0.049
Q17: L -0.364 ± 0.086; R -0.043 ± 0.05; C -0.024 ± 0.063; A -0.109 ± 0.053; M -0.605 ± 0.18; V -0.373 ± 0.092; P -0.297 ± 0.11; W -0.335 ± 0.092; H -0.235 ± 0.14; Y -0.406 ± 0.11; F -0.512 ± 0.15; S -0.316 ± 0.1; T -0.086 ± 0.07; I 0.376 ± 0.25; K 0.248 ± 0.1; E 0.053 ± 0.051; G -0.341 ± 0.046
D7: F -0.38 ± 0.29; G -0.291 ± 0.043; L 0.132 ± 0.058; Q 0.172 ± 0.071; I -0.034 ± 0.25; T 0.165 ± 0.07; C 0.055 ± 0.085; R -0.06 ± 0.051; P -0.297 ± 0.088; S 0.006 ± 0.056; K -0.007 ± 0.061; M 0.091 ± 0.068; A 0.095 ± 0.046; W -0.173 ± 0.05; E 0.048 ± 0.053; N -0.085 ± 0.17
L14: A -0.186 ± 0.059; F -0.064 ± 0.093; E -0.195 ± 0.081; V -0.154 ± 0.056; N -0.153 ± 0.073; P -0.151 ± 0.1; M 0.071 ± 0.12; C -0.198 ± 0.072; K 0.065 ± 0.068; W 0.218 ± 0.054; I 0.001 ± 0.21; T -0.087 ± 0.074; R 0.106 ± 0.055; D -0.087 ± 0.072; H 0.122 ± 0.084; G -0.082 ± 0.049
K11: N -0.007 ± 0.08; F -0.113 ± 0.12; R -0.042 ± 0.062; D 0.142 ± 0.074; E 0.103 ± 0.092; S 0.155 ± 0.064; G -0.012 ± 0.16; W 0.339 ± 0.15; L -0.2 ± 0.18; P 0.315 ± 0.24; I -0.073 ± 0.089; T -0.101 ± 0.18; V -0.055 ± 0.2; Q -0.3 ± 0.26; A 0.029 ± 0.1
V3: S -0.003 ± 0.061; R -0.273 ± 0.057; Y -0.153 ± 0.21; A -0.007 ± 0.054; C 0.098 ± 0.13; Q -0.306 ± 0.092; M 0.141 ± 0.069; P -0.485 ± 0.18; T 0.005 ± 0.067; E -0.067 ± 0.09; K 0.046 ± 0.058; H -0.349 ± 0.17; G 0.127 ± 0.041; L -0.437 ± 0.16; I -0.135 ± 0.1; W -0.353 ± 0.083
G20: D 0.202 ± 0.065; H -0.225 ± 0.12; P -0.338 ± 0.36; R -0.111 ± 0.075; Q -0.053 ± 0.084; K -0.284 ± 0.41; T -0.142 ± 0.098; E 0.103 ± 0.087; A -0.036 ± 0.064; V -0.431 ± 0.11; S -0.331 ± 0.17; L 0.117 ± 0.48
A6: Q -0.087 ± 0.066; G -0.196 ± 0.043; T -0.242 ± 0.087; S 0.055 ± 0.056; R -0.035 ± 0.044; P -0.056 ± 0.1; H -0.43 ± 0.47; Y -0.19 ± 0.12; F -0.158 ± 0.071; N -0.306 ± 0.28; D -0.11 ± 0.058; E -0.244 ± 0.11; C -0.156 ± 0.073; L -0.215 ± 0.052; K -0.011 ± 0.055; W -0.48 ± 0.068; I -0.321 ± 0.2
A2: L -0.013 ± 0.06; C -0.167 ± 0.089; G 0.198 ± 0.045; V 0.065 ± 0.051; R 0.067 ± 0.047; I -0.018 ± 0.12; P -0.071 ± 0.063; M 0.264 ± 0.061; N 0.066 ± 0.27; Y -0.153 ± 0.11; E 0.195 ± 0.055; D -0.031 ± 0.14; W -0.04 ± 0.052; T 0.136 ± 0.046; S 0.045 ± 0.063; K 0.133 ± 0.068
K1: E 0 ± 0.055; M -0.156 ± 0.082; N -0.296 ± 0.22; G -0.193 ± 0.043; L -0.439 ± 0.086; F -0.36 ± 0.2; S -0.142 ± 0.11; W -0.722 ± 0.14; C -0.698 ± 0.2; Y -0.01 ± 0.17; Q -0.32 ± 0.23; D 0.292 ± 0.18; A -0.273 ± 0.17; V -0.191 ± 0.083; R -0.296 ± 0.053; T -0.255 ± 0.42
